# In US20120172293A1 (Takeda / Millennium, published 2012):
# Starred links: 1 amine or outer side, 2 acyl side, 3 side chain; linkers in the order of their positions; H or OH if unused. Non-standard residues stand in square brackets, D forms with d. No end group written: not given here. *: point of attachment. Tetrahydropyran4carbonyl = O=C(C1CCOCC1)*; 2‑hydroxyethylcarbamoyl = O=C(NCCO)*; tBuAla = CC(C)(C)C[C@H](N)C(=O)O; 4Pal = N[C@@H](Cc1ccncc1)C(=O)O; dHyp = O=C(O)[C@H]1C[C@H](O)CN1; Cha = N[C@@H](CC1CCCCC1)C(=O)O; Suc = O=C(CCC(=O)[*:2])[*:1]; 4Amb = NCc1ccc(C(=O)O)cc1; Iva = CC[C@](C)(N)C(=O)O; Nva = CCC[C@H](N)C(=O)O; Aib = CC(C)(N)C(=O)O; Carbamoyl = NC(=O)*
# T1: human Y2 receptor (human, UniProt P49146 1-381)
# T1 sequence (looked up): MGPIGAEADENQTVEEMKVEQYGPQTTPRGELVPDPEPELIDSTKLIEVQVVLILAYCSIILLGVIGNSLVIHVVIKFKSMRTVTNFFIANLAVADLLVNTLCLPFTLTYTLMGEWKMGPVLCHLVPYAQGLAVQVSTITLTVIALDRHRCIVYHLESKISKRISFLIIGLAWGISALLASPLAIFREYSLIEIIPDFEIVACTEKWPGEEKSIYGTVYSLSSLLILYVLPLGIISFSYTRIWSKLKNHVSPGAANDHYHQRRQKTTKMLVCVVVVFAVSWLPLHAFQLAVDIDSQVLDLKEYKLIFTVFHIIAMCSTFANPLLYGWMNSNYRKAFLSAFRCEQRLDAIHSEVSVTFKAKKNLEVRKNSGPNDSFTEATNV
# B1: Ac-[D-Pro24, Iva25, Pya(4)26, Cha27,36, Nva28, Aib31, Lys30]-PYY(23-36) (peptide)
# peptide: Ac-S[dP][Iva][4Pal][Cha][Nva]NK[Aib]TRQR[Cha]-NH2
# SMILES: CCC[C@H](NC(=O)[C@H](CC1CCCCC1)NC(=O)[C@H](Cc1ccncc1)NC(=O)[C@](C)(CC)NC(=O)[C@H]1CCCN1C(=O)[C@H](CO)NC(C)=O)C(=O)N[C@@H](CC(N)=O)C(=O)N[C@@H](CCCCN)C(=O)NC(C)(C)C(=O)N[C@H](C(=O)N[C@@H](CCCNC(=N)N)C(=O)N[C@@H](CCC(N)=O)C(=O)N[C@@H](CCCNC(=N)N)C(=O)N[C@@H](CC1CCCCC1)C(N)=O)[C@@H](C)O
# B2: (Tetrahydro-2H-pyran-4-yl)carbonyl-[D-Pro24, Iva25, Pya(4)26, Cha27,36, Aib28,31, Lys30]-PYY(23-36) (peptide)
# peptide: Tetrahydropyran4carbonyl-S[dP][Iva][4Pal][Cha][Aib]NK[Aib]TRQR[Cha]-NH2
# SMILES: CC[C@](C)(NC(=O)[C@H]1CCCN1C(=O)[C@H](CO)NC(=O)C1CCOCC1)C(=O)N[C@@H](Cc1ccncc1)C(=O)N[C@@H](CC1CCCCC1)C(=O)NC(C)(C)C(=O)N[C@@H](CC(N)=O)C(=O)N[C@@H](CCCCN)C(=O)NC(C)(C)C(=O)N[C@H](C(=O)N[C@@H](CCCNC(=N)N)C(=O)N[C@@H](CCC(N)=O)C(=O)N[C@@H](CCCNC(=N)N)C(=O)N[C@@H](CC1CCCCC1)C(N)=O)[C@@H](C)O
# B3: Ac-[Glu23, D-Hyp24, Iva25, Pya(4)26, Cha27,36, Leu(Me)28, Lys30, Aib31]-PYY(23-36) (peptide)
# peptide: Ac-E[dHyp][Iva][4Pal][Cha][tBuAla]NK[Aib]TRQR[Cha]-NH2
# SMILES: CC[C@](C)(NC(=O)[C@H]1C[C@H](O)CN1C(=O)[C@H](CCC(=O)O)NC(C)=O)C(=O)N[C@@H](Cc1ccncc1)C(=O)N[C@@H](CC1CCCCC1)C(=O)N[C@@H](CC(C)(C)C)C(=O)N[C@@H](CC(N)=O)C(=O)N[C@@H](CCCCN)C(=O)NC(C)(C)C(=O)N[C@H](C(=O)N[C@@H](CCCNC(=N)N)C(=O)N[C@@H](CCC(N)=O)C(=O)N[C@@H](CCCNC(=N)N)C(=O)N[C@@H](CC1CCCCC1)C(N)=O)[C@@H](C)O
# B4: 4-Aminomethylbenzoyl-[D-Arg25, Ala26, Ile28,31]-PYY(25-36) (peptide)
# peptide: [4Amb][dR]AYINLITRQRY-NH2
# modifications: N-terminus assumed
# SMILES: CC[C@H](C)[C@H](NC(=O)[C@H](Cc1ccc(O)cc1)NC(=O)[C@H](C)NC(=O)[C@@H](CCCNC(=N)N)NC(=O)c1ccc(CN)cc1)C(=O)N[C@@H](CC(N)=O)C(=O)N[C@@H](CC(C)C)C(=O)N[C@H](C(=O)N[C@H](C(=O)N[C@@H](CCCNC(=N)N)C(=O)N[C@@H](CCC(N)=O)C(=O)N[C@@H](CCCNC(=N)N)C(=O)N[C@@H](Cc1ccc(O)cc1)C(N)=O)[C@@H](C)O)[C@@H](C)CC
# notes: also called compound No. 9
# B5: Carbamoyl-[D-Pro24, Cha27,28,36, Aib31]-PYY(23-36) (peptide)
# peptide: Carbamoyl-S[dP]RH[Cha][Cha]NL[Aib]TRQR[Cha]-NH2
# SMILES: CC(C)C[C@H](NC(=O)[C@H](CC(N)=O)NC(=O)[C@H](CC1CCCCC1)NC(=O)[C@H](CC1CCCCC1)NC(=O)[C@H](Cc1c[nH]cn1)NC(=O)[C@H](CCCNC(=N)N)NC(=O)[C@H]1CCCN1C(=O)[C@H](CO)NC(N)=O)C(=O)NC(C)(C)C(=O)N[C@H](C(=O)N[C@@H](CCCNC(=N)N)C(=O)N[C@@H](CCC(N)=O)C(=O)N[C@@H](CCCNC(=N)N)C(=O)N[C@@H](CC1CCCCC1)C(N)=O)[C@@H](C)O
# notes: also called compound No. 130; Ureido-[D-Pro24,Cha27,28,36,Aib31]-PYY(23-36)
# B6: Ac-[Asn23, D-Pro24, Cha27,28,36, Aib31]-PYY(23-36) (peptide)
# peptide: Ac-N[dP]RH[Cha][Cha]NL[Aib]TRQR[Cha]-NH2
# SMILES: CC(=O)N[C@@H](CC(N)=O)C(=O)N1CCC[C@@H]1C(=O)N[C@@H](CCCNC(=N)N)C(=O)N[C@@H](Cc1c[nH]cn1)C(=O)N[C@@H](CC1CCCCC1)C(=O)N[C@@H](CC1CCCCC1)C(=O)N[C@@H](CC(N)=O)C(=O)N[C@@H](CC(C)C)C(=O)NC(C)(C)C(=O)N[C@H](C(=O)N[C@@H](CCCNC(=N)N)C(=O)N[C@@H](CCC(N)=O)C(=O)N[C@@H](CCCNC(=N)N)C(=O)N[C@@H](CC1CCCCC1)C(N)=O)[C@@H](C)O
# notes: also called compound No. 115
# B7: Ac-[D-Pro24, Cha27,36, Aib28, Lys30, Aib31]-PYY(23-36) (peptide)
# peptide: Ac-S[dP]RH[Cha][Aib]NK[Aib]TRQR[Cha]-NH2
# SMILES: CC(=O)N[C@@H](CO)C(=O)N1CCC[C@@H]1C(=O)N[C@@H](CCCNC(=N)N)C(=O)N[C@@H](Cc1c[nH]cn1)C(=O)N[C@@H](CC1CCCCC1)C(=O)NC(C)(C)C(=O)N[C@@H](CC(N)=O)C(=O)N[C@@H](CCCCN)C(=O)NC(C)(C)C(=O)N[C@H](C(=O)N[C@@H](CCCNC(=N)N)C(=O)N[C@@H](CCC(N)=O)C(=O)N[C@@H](CCCNC(=N)N)C(=O)N[C@@H](CC1CCCCC1)C(N)=O)[C@@H](C)O
# notes: also called compound No. 135
# B8: Ac-[D-Pro24, Cha27,28,36, Thr30, Aib31]-PYY(23-36) (peptide)
# peptide: Ac-S[dP]RH[Cha][Cha]NT[Aib]TRQR[Cha]-NH2
# SMILES: CC(=O)N[C@@H](CO)C(=O)N1CCC[C@@H]1C(=O)N[C@@H](CCCNC(=N)N)C(=O)N[C@@H](Cc1c[nH]cn1)C(=O)N[C@@H](CC1CCCCC1)C(=O)N[C@@H](CC1CCCCC1)C(=O)N[C@@H](CC(N)=O)C(=O)N[C@H](C(=O)NC(C)(C)C(=O)N[C@H](C(=O)N[C@@H](CCCNC(=N)N)C(=O)N[C@@H](CCC(N)=O)C(=O)N[C@@H](CCCNC(=N)N)C(=O)N[C@@H](CC1CCCCC1)C(N)=O)[C@@H](C)O)[C@@H](C)O
# notes: also called compound No. 132
# B9: 2-Hydroxyethylcarbamoyl-[Glu23, D-Pro24, Cha27,28,36, Lys30, Aib31]-PYY(23-36) (peptide)
# peptide: {2‑hydroxyethylcarbamoyl}-E[dP]RH[Cha][Cha]NK[Aib]TRQR[Cha]-NH2
# SMILES: C[C@@H](O)[C@H](NC(=O)C(C)(C)NC(=O)[C@H](CCCCN)NC(=O)[C@H](CC(N)=O)NC(=O)[C@H](CC1CCCCC1)NC(=O)[C@H](CC1CCCCC1)NC(=O)[C@H](Cc1c[nH]cn1)NC(=O)[C@H](CCCNC(=N)N)NC(=O)[C@H]1CCCN1C(=O)[C@H](CCC(=O)O)NC(=O)NCCO)C(=O)N[C@@H](CCCNC(=N)N)C(=O)N[C@@H](CCC(N)=O)C(=O)N[C@@H](CCCNC(=N)N)C(=O)N[C@@H](CC1CCCCC1)C(N)=O
# notes: also called compound No. 192
# B10: 2-Hydroxyethylcarbamoyl-[D-Pro24, Cha27,36, Leu(Me)28, Lys30, Aib31]-PYY(23-36) (peptide)
# peptide: {2‑hydroxyethylcarbamoyl}-S[dP]RH[Cha][tBuAla]NK[Aib]TRQR[Cha]-NH2
# SMILES: C[C@@H](O)[C@H](NC(=O)C(C)(C)NC(=O)[C@H](CCCCN)NC(=O)[C@H](CC(N)=O)NC(=O)[C@H](CC(C)(C)C)NC(=O)[C@H](CC1CCCCC1)NC(=O)[C@H](Cc1c[nH]cn1)NC(=O)[C@H](CCCNC(=N)N)NC(=O)[C@H]1CCCN1C(=O)[C@H](CO)NC(=O)NCCO)C(=O)N[C@@H](CCCNC(=N)N)C(=O)N[C@@H](CCC(N)=O)C(=O)N[C@@H](CCCNC(=N)N)C(=O)N[C@@H](CC1CCCCC1)C(N)=O
# notes: also called compound No. 188
# B11: Ac-[D-Pro24, Cha27,36, Leu(Me)28, Lys30, Aib31]-PYY(23-36) (peptide)
# peptide: Ac-S[dP]RH[Cha][tBuAla]NK[Aib]TRQR[Cha]-NH2
# SMILES: CC(=O)N[C@@H](CO)C(=O)N1CCC[C@@H]1C(=O)N[C@@H](CCCNC(=N)N)C(=O)N[C@@H](Cc1c[nH]cn1)C(=O)N[C@@H](CC1CCCCC1)C(=O)N[C@@H](CC(C)(C)C)C(=O)N[C@@H](CC(N)=O)C(=O)N[C@@H](CCCCN)C(=O)NC(C)(C)C(=O)N[C@H](C(=O)N[C@@H](CCCNC(=N)N)C(=O)N[C@@H](CCC(N)=O)C(=O)N[C@@H](CCCNC(=N)N)C(=O)N[C@@H](CC1CCCCC1)C(N)=O)[C@@H](C)O
# notes: also called compound No. 136
# B12: 3-Carboxypropionyl-[D-Pro24, Cha27,28,36, Lys30, Aib31]-PYY(23-36) (peptide)
# peptide: Suc-S[dP]RH[Cha][Cha]NK[Aib]TRQR[Cha]-NH2
# SMILES: C[C@@H](O)[C@H](NC(=O)C(C)(C)NC(=O)[C@H](CCCCN)NC(=O)[C@H](CC(N)=O)NC(=O)[C@H](CC1CCCCC1)NC(=O)[C@H](CC1CCCCC1)NC(=O)[C@H](Cc1c[nH]cn1)NC(=O)[C@H](CCCNC(=N)N)NC(=O)[C@H]1CCCN1C(=O)[C@H](CO)NC(=O)CCC(=O)O)C(=O)N[C@@H](CCCNC(=N)N)C(=O)N[C@@H](CCC(N)=O)C(=O)N[C@@H](CCCNC(=N)N)C(=O)N[C@@H](CC1CCCCC1)C(N)=O
# notes: also called compound No. 167
# Target: human Y2 receptor (human) (UniProt P49146)
# Experiment: cell-based or functional assay
row,Binder,GBA EC50 Ratio ([35S]GTPγS binding) (EC50 compound/EC50 PYY(3-36))
1,B1,1.3
2,B2,1.9
3,B3,1.9

# Target: T1, human Y2 receptor
# Experiment: cell-based or functional assay
row,Binder,"GBA EC50 Ratio (vs PYY(3-36)), [35S]GTPγS [ratio]"
1,B4,23
2,B5,1
3,B6,1.7
4,B7,0.84
5,B8,3.1
6,B9,1.2
7,B10,0.71
8,B11,0.63
9,B12,1.1

# Target: human Y2 receptor (human) (UniProt P49146)
# Experiment: RBA: displacement of [125I]-PYY from hY2R/CHO membranes
row,Binder,IC50 Ratio (IC50 compound/IC50 PYY(3-36))
1,B1,1.6
2,B2,3.3
3,B3,1.2

# Target: T1, human Y2 receptor
# Experiment: RBA: [125I]-PYY displacement, hY2R/CHO membranes
# Procedure: After incubation at room temperature for 60 minutes, the mixture was filtered through the cell harvester FilterMate (PerkinElmer) using UniFilter-96 GF/C treated with polyethylenimine (PEI) solution (20 mM Tris, 0.3% PEI, pH 7.4), and the filter was washed 3 times with a filtering buffer (50 mM Tris, 5 mM MgCl₂, 150 mM NaCl, 0.03% NaN₃, 0.05% CHAPS, pH 7.4). Thereafter, UniFilter-96 GF/C was dried in a mechanical drier for 1 hour, 15 μl of the liquid scintillator MicroScint O (PerkinElmer) was added to each well, and a measurement was taken using TopCount (PerkinElmer). The data obtained were analyzed using Prism to calculate the IC₅₀ value.
row,Binder,IC50 Ratio (vs PYY(3-36)) [ratio]
1,B4,92
2,B5,1.8
3,B6,2.4
4,B7,1.9
5,B8,6.1
6,B9,1.3
7,B10,0.6
8,B11,0.57
9,B12,0.64
